{"source": "the RNAGym collection of RNA variant scans (doi:10.1093/nar/gkz1192)", "parents": {"B1": {"name": "CPEB3 Ribozyme (parent)", "chain": "UAACAGGGGGCCACAGCAGAAGCGUUCACGUCGCAGCCCCUGUCAGAUUCUGGUGAAUCUGCGAAUUCUGCUGUAUAUCUC"}}, "data": [{"variants_of": "B1", "experiment": "self-cleavage, relative activity (ratio to wild type); higher = more cleavage; in vitro, sequencing", "outline": "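For each CPEB3 ribozyme variant, relative activity is its cleaved/total read fraction divided by the unmutated ribozyme's. Barcoded error-prone PCR libraries were transcribed by T7 RNA polymerase (5 hours, 37°C) and held in DNase I for 15 min before an EDTA stop, with cleavage occurring throughout. Template-switching reverse transcription and Illumina sequencing were used to read the RNAs. A 5-read minimum applied, and results are the mean of three batches.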", "values": [{"variant": "C14A U60C", "self-cleavage": 0.29}, {"variant": "C14U C59A", "self-cleavage": 0.28}, {"variant": "A15C U74C", "self-cleavage": 1.16}, {"variant": "A15C U76A", "self-cleavage": 1.19}, {"variant": "C14U C32G", "self-cleavage": 0.1}, {"variant": "C14U C32A", "self-cleavage": 0.2}, {"variant": "A13U U48A", "self-cleavage": 0.56}, {"variant": "A13U U48C", "self-cleavage": 0.77}, {"variant": "A15C C17U", "self-cleavage": 0.35}, {"variant": "C14A U67C", "self-cleavage": 0.14}, {"variant": "A15G C34A", "self-cleavage": 0.2}, {"variant": "A15G C34G", "self-cleavage": 0.29}, {"variant": "A15G C34U", "self-cleavage": 0.25}, {"variant": "A15C A65U", "self-cleavage": 0.17}, {"variant": "A15C A65G", "self-cleavage": 0.46}, {"variant": "A13U U69C", "self-cleavage": 0.71}, {"variant": "A13U U69G", "self-cleavage": 0.85}, {"variant": "A13U U69A", "self-cleavage": 0.74}, {"variant": "C14G U41C", "self-cleavage": 1.14}, {"variant": "C14A U41C", "self-cleavage": 1.22}, {"variant": "C14U U66A", "self-cleavage": 0.52}, {"variant": "C14U U66C", "self-cleavage": 0.8}, {"variant": "A13U U31C", "self-cleavage": 1.01}, {"variant": "A13U U31G", "self-cleavage": 0.66}, {"variant": "A13U U31A", "self-cleavage": 0.61}, {"variant": "A15C C37U", "self-cleavage": 0.58}, {"variant": "A15C U43G", "self-cleavage": 0.25}, {"variant": "A15C U43C", "self-cleavage": 0.46}, {"variant": "C14A C38G", "self-cleavage": 0.19}, {"variant": "C14U A15U", "self-cleavage": 1.07}, {"variant": "C14U A15G", "self-cleavage": 1.13}, {"variant": "C14A A65G", "self-cleavage": 0.78}, {"variant": "A13U U49C", "self-cleavage": 0.31}, {"variant": "A13U U49A", "self-cleavage": 0.71}, {"variant": "A15C U25C", "self-cleavage": 0.23}, {"variant": "A15C U25A", "self-cleavage": 0.23}, {"variant": "A13U G61A", "self-cleavage": 0.91}, {"variant": "A15G A21C", "self-cleavage": 0.35}, {"variant": "A15G A21U", "self-cleavage": 0.33}, {"variant": "A15G A21G", "self-cleavage": 0.49}, {"variant": "A15G C37A", "self-cleavage": 0.11}, {"variant": "A15G C37G", "self-cleavage": 0.69}, {"variant": "C14G C40G", "self-cleavage": 0.1}, {"variant": "A13U U66C", "self-cleavage": 0.48}, {"variant": "A13U U66G", "self-cleavage": 0.81}, {"variant": "A13U U66A", "self-cleavage": 0.52}, {"variant": "A15G A64U", "self-cleavage": 0.33}, {"variant": "A15G A64G", "self-cleavage": 0.65}, {"variant": "A15G A64C", "self-cleavage": 0.25}, {"variant": "C14A A35G", "self-cleavage": 1.26}, {"variant": "C14A A35U", "self-cleavage": 0.4}, {"variant": "A13U G30U", "self-cleavage": 0.11}, {"variant": "C14G U66C", "self-cleavage": 0.29}, {"variant": "A15C C68U", "self-cleavage": 0.59}, {"variant": "C14G C29A", "self-cleavage": 0.87}, {"variant": "C14U U72C", "self-cleavage": 1.21}, {"variant": "C14A U51C", "self-cleavage": 1.04}, {"variant": "C14A U51A", "self-cleavage": 1.1}, {"variant": "C14A U78C", "self-cleavage": 1.07}, {"variant": "C14U A20G", "self-cleavage": 1.19}, {"variant": "C14U A20U", "self-cleavage": 0.4}, {"variant": "A15C A56G", "self-cleavage": 0.68}, {"variant": "A15C A56U", "self-cleavage": 0.3}, {"variant": "C14G U49C", "self-cleavage": 0.33}, {"variant": "A15C U26C", "self-cleavage": 0.36}, {"variant": "A15C U49C", "self-cleavage": 0.35}, {"variant": "A15C U49A", "self-cleavage": 0.7}, {"variant": "C14U U48C", "self-cleavage": 0.97}, {"variant": "C14U U48A", "self-cleavage": 0.71}, {"variant": "C14G A15C", "self-cleavage": 0.37}, {"variant": "C14G A15G", "self-cleavage": 0.79}, {"variant": "A15C U54C", "self-cleavage": 0.98}, {"variant": "A15C G63A", "self-cleavage": 0.99}, {"variant": "C14U G36A", "self-cleavage": 0.32}, {"variant": "C14G G61A", "self-cleavage": 0.42}, {"variant": "C14U U78G", "self-cleavage": 1.27}, {"variant": "C14U U78C", "self-cleavage": 1.22}, {"variant": "A13U U76C", "self-cleavage": 1.17}, {"variant": "A13U U76A", "self-cleavage": 1.11}, {"variant": "C14U U74G", "self-cleavage": 1.27}, {"variant": "C14A A28U", "self-cleavage": 0.76}, {"variant": "C14U U31A", "self-cleavage": 0.74}, {"variant": "A15G C29A", "self-cleavage": 0.16}]}]}
